Data reported in paper PMC12689856, “A highly active Burkholderia polyketoacyl-CoA thiolase for production of triacetic acid lactone” (Nature Communications, 2025).

How the values were obtained:
[1] = biological target: T1, BktBbr (Burkholderia sp. RF2-non_BP3, UniProt Z9IDK7UI24, S254A); assay: coupled alpha-KGDH assay, TAL formation; type: biochemical; conditions: acetoacetyl-CoA varied to 200 uM, acetyl-CoA fixed 200 uM; 22 °C
T1 construct: synthetic codon-optimised gene in pET-28a(+)-TEV (NdeI/XhoI), E. coli BL21(DE3), Ni-NTA; tetramer

[2] = biological target: T2, BktBbr (Burkholderia sp. RF2-non_BP3, UniProt Z9IDK7UI24, G255A); assay: coupled alpha-KGDH assay, TAL formation; type: biochemical; conditions: acetoacetyl-CoA varied to 200 uM, acetyl-CoA fixed 200 uM; 22 °C
T2 construct: synthetic codon-optimised gene in pET-28a(+)-TEV (NdeI/XhoI), E. coli BL21(DE3), Ni-NTA; tetramer

[3] = biological target: T3, BktBbr (Burkholderia sp. RF2-non_BP3, UniProt Z9IDK7UI24); assay: X-ray crystal structure, soaked, […] Å; type: binding; conditions: 20 mM ligand soak 3 h; CoA tunnel, water-mediated contacts; paper calls CoA esters covalent
T3 construct: synthetic codon-optimised gene in pET-28a(+)-TEV (NdeI/XhoI), E. coli BL21(DE3), Ni-NTA; tetramer

[4] = test system: CC(=O)SCCNC(=O)CCNC(=O)[C@H](O)C(C)(C)COP(=O)(O)OP(=O)(O)OC[C@H]1O[C@@H](n2cnc3c(N)ncnc32)[C@H](O)[C@@H]1OP(=O)(O)O; assay: purified protein; conditions: acetyl-CoA as only substrate, 12.5-400 uM, 50 mM sodium phosphate, 3 mM EDTA, 1 mM DTT, 22 °C, 3 uM enzyme
[5] = biological target: T3, BktBbr; assay: X-ray crystal structure, soaked, […] Å; type: binding; conditions: 20 mM ligand soak 3 h; active site and CoA tunnel; paper calls CoA esters covalent
[6] = test system: T4, BktBbb; assay: coupled alpha-KGDH assay, NADH fluorescence; type: biochemical, Burkholderia sp. Bp8998; conditions: acetyl-CoA as only substrate, 12.5-400 uM; 50 mM sodium phosphate, 3 mM EDTA, 1 mM DTT; 22 °C; 3 uM enzyme
T4 construct: gene bktB; synthetic codon-optimised gene in pET-28a(+)-TEV, E. coli BL21(DE3), Ni-NTA
From the text: coupled alpha-KGDH assay, NADH fluorescence on BktBbb | Michaelis-Menten plot of all BktBs and 2-PS with only acetyl-CoA or malonyl-CoA

[7] = biological target: T3, BktBbr; assay: X-ray crystal structure, soaked, […] Å; type: binding; conditions: 20 mM ligand soak 3 h; active site and CoA tunnel; paper calls CoA esters covalent; remark: listed apart in the source
[8] = substrate: CC(C)(COP(=O)(O)OP(=O)(O)OC[C@H]1O[C@@H](n2cnc3c(N)ncnc32)[C@H](O)[C@@H]1OP(=O)(O)O)[C@@H](O)C(=O)NCCC(=O)NCCSC(=O)CC(=O)O; assay: coupled alpha-KGDH assay, NADH fluorescence; type: biochemical, Gerbera hybrid cultivar; conditions: malonyl-CoA as only substrate, 12.5-400 uM, 22 °C
From the text: coupled alpha-KGDH assay, NADH fluorescence on 2-PS | Michaelis-Menten plot of all BktBs and 2-PS with only acetyl-CoA or malonyl-CoA

[9] = substrate: CC(=O)SCCNC(=O)CCNC(=O)[C@H](O)C(C)(C)COP(=O)(O)OP(=O)(O)OC[C@H]1O[C@@H](n2cnc3c(N)ncnc32)[C@H](O)[C@@H]1OP(=O)(O)O; assay: coupled alpha-KGDH assay, NADH fluorescence; type: biochemical, Cupriavidus necator; conditions: acetyl-CoA as only substrate, 12.5-400 uM, 50 mM sodium phosphate, 3 mM EDTA, 1 mM DTT, 22 °C, 3 uM enzyme
From the text: coupled alpha-KGDH assay, NADH fluorescence on BktBcn | BktBbr and BktBba have slightly higher kcat/KM than BktBcn and BktBcl

CC(=O)CC(=O)SCCNC(=O)CCNC(=O)[C@H](O)C(C)(C)COP(=O)(O)OP(=O)(O)OC[C@H]1O[C@@H](n2cnc3c(N)ncnc32)[C@H](O)[C@@H]1OP(=O)(O)O [acetoacetyl-CoA]
coupled alpha-KGDH assay, TAL formation [1]: purified mutants of S254A and G251A exhibited overall better enzyme activity for TAL formation
coupled alpha-KGDH assay, TAL formation [2]: while G255A performed comparably to the wild-type
X-ray crystal structure, soaked, 2.4 Å [3]: Interaction of acetoacetyl-CoA with BktBbr through water molecules (PDB ID: 9BWP)

BktBbr (Burkholderia sp. RF2-non_BP3)
Km [4]: 23.99 ± 13.47 µM
kcat [4]: 1.203 ± 0.115 s⁻¹
kcat/Km [4]: 50200 ± 21000 M⁻¹ s⁻¹

CC(=O)SCCNC(=O)CCNC(=O)[C@H](O)C(C)(C)COP(=O)(O)OP(=O)(O)OC[C@H]1O[C@@H](n2cnc3c(N)ncnc32)[C@H](O)[C@@H]1OP(=O)(O)O [acetyl-CoA]
X-ray crystal structure, soaked, 2.2 Å [5]: bound with acetyl-CoA, acetoacetyl-CoA, and butyryl-CoA (PDB IDs: 9BWO, 9BWP, 9BWL)
Km [6]: 43.3 ± 16.6 µM

CCCC(=O)SCCNC(=O)CCNC(=O)[C@H](O)C(C)(C)COP(=O)(O)OP(=O)(O)OC[C@H]1O[C@@H](n2cnc3c(N)ncnc32)[C@H](O)[C@@H]1OP(=O)(O)O [butyryl-CoA]
X-ray crystal structure, soaked, 2.1 Å [7]: Binding of butyryl-CoA in the active site (PDB ID: 9BWL)

B1: 2-PS (Gerbera hybrid cultivar) (protein)
chain: MGSYSSDDVEVIREAGRAQGLATILAIGTATPPNCVAQADYADYYFRVTKSEHMVDLKEKFKRICEKTAIKKRYLALTEDYLQENPTMCEFMAPSLNARQDLVVTGVPMLGKEAAVKAIDEWGLPKSKITHLIFCTTAGVDMPGADYQLVKLLGLSPSVKRYMLYQQGCAAGGTVLRLAKDLAENNKGSRVLIVCSEITAILFHGPNENHLDSLVAQALFGDGAAALIVGSGPHLAVERPIFEIVSTDQTILPDTEKAMKLHLREGGLTFQLHRDVPLMVAKNIENAAEKALSPLGITDWNSVFWMVHPGGRAILDQVERKLNLKEDKLRASRHVLSEYGNLISACVLFIIDEVRKRSMAEGKSTTGEGLDCGVLFGFGPGMTVETVVLRSVRVTAAVANGN
notes: synthetic codon-optimised gene in pET-28a(+)-TEV, E. coli BL21(DE3), Ni-NTA
Km [8]: 6.93 ± 1.34 µM
kcat [8]: 0.9298 ± 0.0345 s⁻¹
kcat/Km [8]: 137000 ± 24800 M⁻¹ s⁻¹

B2: BktBcn (Cupriavidus necator H16) (protein)
chain: MTREVVVVSGVRTAIGTFGGSLKDVAPAELGALVVREALARAQVSGDDVGHVVFGNVIQTEPRDMYLGRVAAVNGGVTINAPALTVNRLCGSGLQAIVSAAQTILLGDTDVAIGGGAESMSRAPYLAPAARWGARMGDAGLVDMMLGALHDPFHRIHMGVTAENVAKEYDISRAQQDEAALESHRRASAAIKAGYFKDQIVPVVSKGRKGDVTFDTDEHVRHDATIDDMTKLRPVFVKENGTVTAGNASGLNDAAAAVVMMERAEAERRGLKPLARLVSYGHAGVDPKAMGIGPVPATKIALERAGLQVSDLDVIEANEAFAAQACAVTKALGLDPAKVNPNGSGISLGHPIGATGALITVKALHELNRVQGRYALVTMCIGGGQGIAAIFERI
notes: synthetic codon-optimised gene in pET-28a(+)-TEV, E. coli BL21(DE3), Ni-NTA; tetramer
Km [9]: 39.25 ± 20.43 µM
kcat [9]: 1.41 ± 0.261 s⁻¹
kcat/Km [9]: 41500 ± 16200 M⁻¹ s⁻¹
